Data taken from patent US7115382B1, “Method for detecting IGFBP-4 protease without detecting IGFBP-4 protease/proMBP Complex” (Mayo Foundation for Medical Education and Research, priority 1999, dated 2006).

Assays:
[1] = biological target: T1, rPAPP-A (Homo sapiens, UniProt Q13219); assay: Activity of recombinant PAPP-A against IGFBP-4; assay type: biochemical; settings: in presence of IGF
T1 construct: because the mature rPAPP-A is antigenic, functional, and secreted abundantly into the culture medium; made in house; host or cells: human embryonic kidney 293T cells, pcDNA3.1-PAPP-A; culture supernatant or purified
Description: (§1) PAPP-A Activity. IGFBP-4 proteolysis was assayed by incubating the sample overnight at 37° C. with 2 mM CaC2/50 mM Tris (pH 7.5)/10,000 cpm of [^125I]IGFBP-4 in the absence and presence of 5 nM IGF-II in a total volume of 25 μl. Proteins were separated by reducing 15% SDS/PAGE and visualized by autoradiography. For some experiments, PAPP-A polyclonal antibody or nonspecific rabbit IgG was added to the assay mixture or was used in conjunction with protein G plus protein A-agarose (Oncogene Science) to immunoprecipitate IGFBP-4 protease activity before assay.
(§2) Measurement of PAPP-A Proteolytic Activity: IGFBP-4 proteolysis was assayed as described in Example 1. The activity of the PAPP-A/proMBP complex was compared to the activity of rPAPP-A in two parallel time course experiments scaled up to larger reaction volumes: Equal amounts of sample A (pool of pregnancy serum diluted to 7 μg/ml of PAPP-A/proMBP as determined by ELISA calibrated with purified PAPP-A/proMBP) and sample B (as sample A, but rPAPP-A supernatant added to 7 μg/ml as determined by ELISA calibrated with purified rPAPP-A) were incubated with [^125I]IGFBP-4 in the presence of 5 nM IGF-II. […] The experiment with sample A was also carried out in the presence of polyclonal anti(PAPP-A/proMBP). A similar time course experiment was performed for comparison of PAPP-A activity in selected column fractions.

[2] = biological target: T2, IGFBP-4 protease activity in follicular fluid (Homo sapiens, UniProt Q13219); assay: IGFBP-4 proteolysis in IVF follicular fluid, cell-free [125I]IGFBP-4 assay; assay type: biochemical; settings: for Effect on IGFBP-4 protease activity in IVF follicular fluid: added to the assay during 6 h incubation; for % Inhibition of IGFBP-4 proteolysis, FF: follicular fluid 10 μl, [125I]IGFBP-4, 6 h 37°C, EDTA 5 mM, 1,10 phenantholine 5 mM, PMSF 10 mM, Pefabloc 1 mM, TIMP-1 5 μg/ml
T2 construct: Follicular fluid was obtained at the time of follicle aspiration for in vitro fertilization (IVF) procedures; from tissue; host or cells: IVF follicular fluid
Description: PAPP-A Activity. […] For some experiments, PAPP-A polyclonal antibody or nonspecific rabbit IgG was added to the assay mixture or was used in conjunction with protein G plus protein A-agarose (Oncogene Science) to immunoprecipitate IGFBP-4 protease activity before assay.
(§3) For some experiments, protease inhibitors (see Table 2) or PAPP-A polyclonal antibody were added to the assay mixture during the 6 h incubation. In others, PAPP-A antibody or nonspecific rabbit IgG was used in conjunction with Protein G-plus/Protein-A-agarose (Oncogene Science) to immunoprecipitate IGFBP-4 protease activity and the sample supernatants were then used in the protease assay.

[3] = biological target: T3, PAPP-A (Homo sapiens, UniProt Q13219); assay: IGFBP-4 proteolysis by PAPP-A purified from pregnancy serum, [125I]IGFBP-4 assay; assay type: biochemical; settings: PAPP-A purified from pregnancy serum 500 ng, EDTA 5 mM, 1,10 phenantholine 5 mM, PMSF 10 mM, TIMP-1 5 μg/ml
T3 construct: a pro-part of 58 residues, and an 1547-residue circulating mature polypeptide; from tissue; host or cells: human term pregnancy serum
Description: as §1
IGFBP-4 proteolysis was assayed as described in Example 1, by incubating sample at 37° C. for 6 h with [^125I]IGFBP-4. Reaction products were separated by nonreducing 7.5–15% gradient SDS-PAGE, and visualized by autoradiography.
as §3

[4] = biological target: insulin-like growth factor binding protein-4 ([125I]IGFBP-4) (human) (UniProt P22692); assay: cell-based or functional assay
[5] = tested on: IGFBP-4; assay: IGFBP-4 cleavage by PAPP-A forms (rPAPP-A, PAPP-A/proMBP, column fractions); assay type: biochemical, human; settings: for Amount required to obtain the same degree of IGFBP-4 cleavage: initial experiment, purified proteins; for IGF-dependent IGFBP-4 protease activity: with and without IGF-II
Description: as §1, §2

[6] = biological target: PAPP-A (IGFBP-4 protease) in IVF follicular fluid (human) (UniProt Q13219); assay: cell-based or functional assay
[7] = biological target: PAPP-A/proMBP complex purified from pregnancy serum (human) (UniProt Q13219); assay: cell-based or functional assay
[8] = biological target: T4, insulin-like growth factor binding protein-4 ([125I]IGFBP-4) (UniProt P22692)
T4 sequence: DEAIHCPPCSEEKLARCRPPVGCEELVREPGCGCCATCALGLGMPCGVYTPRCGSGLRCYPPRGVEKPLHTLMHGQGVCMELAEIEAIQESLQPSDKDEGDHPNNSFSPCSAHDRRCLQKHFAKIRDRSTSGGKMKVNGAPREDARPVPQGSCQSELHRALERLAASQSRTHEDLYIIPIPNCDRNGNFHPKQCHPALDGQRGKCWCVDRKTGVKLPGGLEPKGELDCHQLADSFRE

[9] = tested on: human granulosa cells; settings: Iwashita et al. 1996; cited from earlier work
[10] = biological target: T5, insulin-like growth factor binding protein-4 ([125I]IGFBP-4), P22692
T5 chain: T4 sequence

[11] = biological target: PAPP-A present in pregnancy serum (human, UniProt Q13219 82-1627); assay: cell-based or functional assay

T1 sequence (Q13219 with tags, fused parts or gaps): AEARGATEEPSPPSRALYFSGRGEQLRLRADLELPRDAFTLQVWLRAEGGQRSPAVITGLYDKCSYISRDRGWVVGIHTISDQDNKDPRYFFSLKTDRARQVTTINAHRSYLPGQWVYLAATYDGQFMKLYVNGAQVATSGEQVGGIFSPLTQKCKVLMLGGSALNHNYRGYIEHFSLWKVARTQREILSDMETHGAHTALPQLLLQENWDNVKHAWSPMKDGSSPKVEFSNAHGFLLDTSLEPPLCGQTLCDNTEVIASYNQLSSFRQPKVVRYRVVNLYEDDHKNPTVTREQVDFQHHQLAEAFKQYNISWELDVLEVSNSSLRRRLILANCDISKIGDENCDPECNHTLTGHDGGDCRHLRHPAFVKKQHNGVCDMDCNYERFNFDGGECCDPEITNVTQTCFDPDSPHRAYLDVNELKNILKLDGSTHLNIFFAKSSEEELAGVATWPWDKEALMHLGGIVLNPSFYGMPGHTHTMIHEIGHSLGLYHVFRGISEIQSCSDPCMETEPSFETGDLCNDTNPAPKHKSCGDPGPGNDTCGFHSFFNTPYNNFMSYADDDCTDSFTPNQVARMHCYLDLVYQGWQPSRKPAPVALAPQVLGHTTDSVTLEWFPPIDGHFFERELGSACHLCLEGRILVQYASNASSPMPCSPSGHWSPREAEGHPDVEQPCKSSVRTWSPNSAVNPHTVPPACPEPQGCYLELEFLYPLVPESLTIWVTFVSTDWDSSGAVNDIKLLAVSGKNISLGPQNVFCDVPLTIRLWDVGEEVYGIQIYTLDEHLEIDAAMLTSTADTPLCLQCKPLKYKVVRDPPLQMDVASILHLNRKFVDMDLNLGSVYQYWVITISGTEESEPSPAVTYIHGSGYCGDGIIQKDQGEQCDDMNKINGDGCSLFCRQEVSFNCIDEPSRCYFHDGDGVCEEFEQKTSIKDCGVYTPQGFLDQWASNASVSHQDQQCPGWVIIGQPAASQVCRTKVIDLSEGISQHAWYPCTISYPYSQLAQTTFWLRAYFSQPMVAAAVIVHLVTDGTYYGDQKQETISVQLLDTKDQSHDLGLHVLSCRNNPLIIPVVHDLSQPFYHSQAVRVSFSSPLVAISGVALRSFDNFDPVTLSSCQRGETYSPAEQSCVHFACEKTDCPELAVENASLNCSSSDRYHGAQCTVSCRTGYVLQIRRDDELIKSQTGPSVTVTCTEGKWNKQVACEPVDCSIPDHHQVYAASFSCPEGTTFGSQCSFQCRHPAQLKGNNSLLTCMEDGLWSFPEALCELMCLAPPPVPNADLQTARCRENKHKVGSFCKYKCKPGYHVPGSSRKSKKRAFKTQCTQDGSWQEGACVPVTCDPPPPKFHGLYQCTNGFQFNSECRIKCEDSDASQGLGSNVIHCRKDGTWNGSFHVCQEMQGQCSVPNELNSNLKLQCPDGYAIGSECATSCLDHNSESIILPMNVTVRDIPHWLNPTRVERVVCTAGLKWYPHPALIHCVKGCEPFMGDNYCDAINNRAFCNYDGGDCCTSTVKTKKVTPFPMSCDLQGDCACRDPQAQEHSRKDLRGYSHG

For `c1cnc2c(c1)ccc1cccnc12` [1,10 phenantholine, 1,10-phenanthroline], the “Inhibition of rPAPP-A activity against IGFBP-4” value (from here on “Inhibition of rPAPP-A activity”) [1] was “inhibited”, the “Effect on IGFBP-4 protease activity in IVF follicular fluid” value (shortened to “Effect on IGFBP-4 protease activity”) [2] was “completely suppressed” and the “% Inhibition of IGFBP-4 proteolysis, FF” value [2] was 100%. For the same molecule, the “% Inhibition of IGFBP-4 proteolysis, PAPP-A” value (shortened to “% Inhibition … PAPP-A”) [3] was 100%.

For `O=C(O)CN(CCN(CC(=O)O)CC(=O)O)CC(=O)O` [EDTA], the “Inhibition of rPAPP-A activity” value [1] was “inhibited” and the “Effect on IGFBP-4 protease activity” value [2] was “completely suppressed”.

With `O=S(=O)(F)Cc1ccccc1` [PMSF] the “Effect on IGFBP-4 protease activity” value [2] was “not”, the “% Inhibition of IGFBP-4 proteolysis, FF” value [2] was 0% and the “% Inhibition … PAPP-A” value [3] was 20%.

For `Cl.NCCc1ccc(S(=O)(=O)F)cc1` [Pefabloc], the “Effect on IGFBP-4 protease activity” value [2] was “not” and the “% Inhibition of IGFBP-4 proteolysis, FF” value [2] was 15%.

With “PAPP-A/proMBP complex purified from pregnancy serum (from UniProt Q13219 82-1627; P13727 17-222)” the amount required for the same degree of IGFBP-4 cleavage [4] was 50 ng.

For “PAPP-A/proMBP: approximately 500 kDa disulfide-linked 2:2 complex of PAPP-A and proMBP purified from pregnancy serum”, the “Amount required to obtain the same degree of IGFBP-4 cleavage” value [5] was “approximately 50 ng” and the “IGF-dependent IGFBP-4 protease activity” value [5] was “exhibited IGF-dependent IGFBP-4 protease activity”.

In the case of TIMP-1 (from UniProt P01033 24-207), the % Inhibition of IGFBP-4 proteolysis (TIMP-1, 5 ug/ml) [6] is reported as 0% and the % Inhibition of IGFBP-4 proteolysis (TIMP-1, 5 ug/ml) [7] is reported as 0%.

For “TIMP-1: a broad spectrum inhibitor of matrix metalloproteinases”, the “Inhibition of rPAPP-A activity” value [1] was “not”, the “Effect on IGFBP-4 protease activity” value [2] was “had no effect” and the “% Inhibition of IGFBP-4 proteolysis, FF” value [2] was 0%. The “% Inhibition … PAPP-A” value [3] was 0%.

For “rPAPP-A: recombinant PAPP-A expressed in mammalian cells, secreted as a homodimer of about 400 kDa devoid of proMBP”, the “Amount required to obtain the same degree of IGFBP-4 cleavage” value [5] was 0.1 ng, the “Difference in specific activity, rPAPP-A versus PAPP-A in pregnancy serum” value ([5]; time course, 7 μg/ml each, 5 nM IGF-II) was “about 100 fold” and the “IGF-dependent IGFBP-4 protease activity” value [5] was “cleaves IGFBP-4 in an IGF dependent manner”.

For recombinant PAPP-A (rPAPP-A), the “amount required for the same degree of IGFBP-4 cleavage” value [8] was “approximately 50 ng of PAPP-A/proMBP complex purified from pregnancy serum was required to obtain the same degree of IGFBP-4 cleavage as 0.1 ng of rPAPP-A” and the “cleavage of IGFBP-4” value [8] was “IGFBP-4 was cleaved in the presence, but not in the absence of IGF”.

For “uncomplexed PAPP-A: PAPP-A antigen eluting around fraction 24 of pregnancy serum, uncomplexed PAPP-A dimer”, the “Specific activity against IGFBP-4, early versus late eluting Mono Q peak of pregnancy serum” value ([5]; fraction 24 versus fraction 43) was “greater than 25 fold”.

B1: intact IGFBP4: intact insulin-like growth factor binding protein 4 (protein)
chain: T4 sequence
For B1, the “Effect on IGF-stimulated estradiol production” value [9] is listed as “inhibited”.

B2: PAPP-A (IGFBP-4 protease) in IVF follicular fluid (protein)
chain: EARGATEEPSPPSRALYFSGRGEQLRLRADLELPRDAFTLQVWLRAEGGQRSPAVITGLYDKCSYISRDRGWVVGIHTISDQDNKDPRYFFSLKTDRARQVTTINAHRSYLPGQWVYLAATYDGQFMKLYVNGAQVATSGEQVGGIFSPLTQKCKVLMLGGSALNHNYRGYIEHFSLWKVARTQREILSDMETHGAHTALPQLLLQENWDNVKHAWSPMKDGSSPKVEFSNAHGFLLDTSLEPPLCGQTLCDNTEVIASYNQLSSFRQPKVVRYRVVNLYEDDHKNPTVTREQVDFQHHQLAEAFKQYNISWELDVLEVSNSSLRRRLILANCDISKIGDENCDPECNHTLTGHDGGDCRHLRHPAFVKKQHNGVCDMDCNYERFNFDGGECCDPEITNVTQTCFDPDSPHRAYLDVNELKNILKLDGSTHLNIFFAKSSEEELAGVATWPWDKEALMHLGGIVLNPSFYGMPGHTHTMIHEIGHSLGLYHVFRGISEIQSCSDPCMETEPSFETGDLCNDTNPAPKHKSCGDPGPGNDTCGFHSFFNTPYNNFMSYADDDCTDSFTPNQVARMHCYLDLVYQGWQPSRKPAPVALAPQVLGHTTDSVTLEWFPPIDGHFFERELGSACHLCLEGRILVQYASNASSPMPCSPSGHWSPREAEGHPDVEQPCKSSVRTWSPNSAVNPHTVPPACPEPQGCYLELEFLYPLVPESLTIWVTFVSTDWDSSGAVNDIKLLAVSGKNISLGPQNVFCDVPLTIRLWDVGEEVYGIQIYTLDEHLEIDAAMLTSTADTPLCLQCKPLKYKVVRDPPLQMDVASILHLNRKFVDMDLNLGSVYQYWVITISGTEESEPSPAVTYIHGSGYCGDGIIQKDQGEQCDDMNKINGDGCSLFCRQEVSFNCIDEPSRCYFHDGDGVCEEFEQKTSIKDCGVYTPQGFLDQWASNASVSHQDQQCPGWVIIGQPAASQVCRTKVIDLSEGISQHAWYPCTISYPYSQLAQTTFWLRAYFSQPMVAAAVIVHLVTDGTYYGDQKQETISVQLLDTKDQSHDLGLHVLSCRNNPLIIPVVHDLSQPFYHSQAVRVSFSSPLVAISGVALRSFDNFDPVTLSSCQRGETYSPAEQSCVHFACEKTDCPELAVENASLNCSSSDRYHGAQCTVSCRTGYVLQIRRDDELIKSQTGPSVTVTCTEGKWNKQVACEPVDCSIPDHHQVYAASFSCPEGTTFGSQCSFQCRHPAQLKGNNSLLTCMEDGLWSFPEALCELMCLAPPPVPNADLQTARCRENKHKVGSFCKYKCKPGYHVPGSSRKSKKRAFKTQCTQDGSWQEGACVPVTCDPPPPKFHGLYQCTNGFQFNSECRIKCEDSDASQGLGSNVIHCRKDGTWNGSFHVCQEMQGQCSVPNELNSNLKLQCPDGYAIGSECATSCLDHNSESIILPMNVTVRDIPHWLNPTRVERVVCTAGLKWYPHPALIHCVKGCEPFMGDNYCDAINNRAFCNYDGGDCCTSTVKTKKVTPFPMSCDLQGDCACRDPQAQEHSRKDLRGYSHG
In the case of B2, the “proteolysis of [125I]IGFBP-4” value [10] is reported as “Incubation of IVF follicular fluid with [125I]IGFBP-4 resulted in the loss of intact IGFBP-4 ... and the generation of radiolabeled fragments of 18- and 14-kDa”.

B3: proform of eosinophil major basic protein (proMBP) (other, human, UniProt P13727 17-222, looked up)
chain: LHLRSETSTFETPLGAKTLPEDEETPEQEMEETPCRELEEEEEWGSGSEDASKKDGAVESISVPDMVDKNLTCPEEEDTVKVVGIPGCQTCRYLLVRSLQTFSQAWFTCRRCYRGNLVSIHNFNINYRIQCSVSALNQGQVWIGGRITGSGRCRRFQWVDGSRWNFAYWAAHQPWSRGGHCVALCTRGGHWRRAHCLRRLPFICSY
For B3, the “difference in specific activity between PAPP-A in pregnancy serum and rPAPP-A” value [11] was ~100 fold and the “specific activity against IGFBP-4 of the early (uncomplexed) against the late (PAPP-A/proMBP) Mono Q peak” value [11] was > 25 fold.
